Reference: article PMC11952669 (Research Square, 2025)

Columns and labels:
[1] = target: Biotinylated VsCoV-a7 RBD (residues 356–556) (bat MERSr-CoV VsCoV-a7 (from Vespertilio sinensis)); experiment: BLI
cryo-EM structure = target: the molecule itself; experiment: cryo-EM structure

Molecule	Kd [1]	binding result (cryo-EM structure)
E.fus ACE2 ectodomain (residues 1–747), dimeric (receptor)	816 nM	
R.nor ACE2 ectodomain (residues 1–741), dimeric (receptor, also called soluble dimeric R.nor ACE2; R.nor (Rodent) ACE2; source: Expi293F, purified (Ni Sepharose, Superose-6 gel filtration)) QSLIEEKAESFLNKFNQEAEDLSYQSSLASWNYNTNITEENAQKMNEAAAKWSAFYEEQSKIAQNFSLQEIQNATIKRQLKALQQSGSSALSPDKNKQLNTILNTMSTIYSTGKVCNSMNPQECFLLEPGLDEIMATSTDYNRRLWAWEGWRAEVGKQLRPLYEEYVVLKNEMARANNYEDYGDYWRGDYEAEGVEGYNYNRNQLIEDVENTFKEIKPLYEQLHAYVRTKLMEVYPSYISPTGCLPAHLLGDMWGRFWTNLYPLTTPFLQKPNIDVTDAMVNQSWDAERIFKEAEKFFVSVGLPQMTPGFWTNSMLTEPGDDRKVVCHPTAWDLGHGDFRIKMCTKVTMDNFLTAHHEMGHIQYDMAYAKQPFLLRNGANEGFHEAVGEIMSLSAATPKHLKSIGLLPSNFQEDNETEINFLLKQALTIVGTLPFTYMLEKWRWMVFQDKIPREQWTKKWWEMKREIVGVVEPLPHDETYCDPASLFHVSNDYSFIRYYTRTIYQFQFQEALCQAAKHDGPLHKCDISNSTEAGQKLLNMLSLGNSGPWTLALENVVGSRNMDVKPLLNYFQPLFVWLKEQNRNSTVGWSTDWSPYADQSIKVRISLKSALGKNAYEWTDNEMYLFRSSVAYAMREYFSREKNQTVPFGEADVWVSDLKPRVSFNFFVTSPKNVSDIIPRSEVEEAIRMSRGRINDIFGLNDNSLEFLGIYPTLKPPYEPPVTI		binds
